Source: US20090093061A1

Assays:
Experiment in all cases: GroEL-490 bead column capture of denatured serum, ATP elution, LC-MS-MS
[1] = target: NYD-SP11 protein (Homo sapiens)
[2] = target: DNA fragmentation factor, 45 kD, alpha polypeptide (Homo sapiens) (UniProt O00273)
[3] = target: leucine-rich repeat-containing G protein-coupled receptor 6 (Homo sapiens) (UniProt Q9HBX8)
[4] = target: zinc finger protein 469 (Homo sapiens) (UniProt Q96JG9)
[5] = target: Rho GTPase activating protein 5 (Homo sapiens) (UniProt Q13017)
[6] = target: chondroitin sulfate proteoglycan 6 (bamacan) (Homo sapiens) (UniProt Q9UQE7)
[7] = target: similar to zinc finger, CW-type with PWWP domain 1 (Homo sapiens)
[8] = target: zinc finger protein 28 (Homo sapiens) (UniProt Q8NHY6)
[9] = target: albumin precursor (Homo sapiens) (UniProt P02768)
[10] = target: glutaminase C (Homo sapiens) (UniProt O94925)
[11] = target: inter-alpha (globulin) inhibitor, H2 polypeptide (Homo sapiens) (UniProt P19823)
[12] = target: tumor protein p53 binding protein, 2 (Homo sapiens) (UniProt Q13625)
[13] = target: similar to ataxin 2 binding protein 1 isoform gamma (Homo sapiens)
[14] = target: RAN-binding protein 2-like 1 isoform 1 (Homo sapiens) (UniProt Q99666)
[15] = target: complement component 4 binding protein, alpha (Homo sapiens) (UniProt P04003)
Chain of complement component 4 binding protein, alpha (Homo sapiens) (P04003 49-597): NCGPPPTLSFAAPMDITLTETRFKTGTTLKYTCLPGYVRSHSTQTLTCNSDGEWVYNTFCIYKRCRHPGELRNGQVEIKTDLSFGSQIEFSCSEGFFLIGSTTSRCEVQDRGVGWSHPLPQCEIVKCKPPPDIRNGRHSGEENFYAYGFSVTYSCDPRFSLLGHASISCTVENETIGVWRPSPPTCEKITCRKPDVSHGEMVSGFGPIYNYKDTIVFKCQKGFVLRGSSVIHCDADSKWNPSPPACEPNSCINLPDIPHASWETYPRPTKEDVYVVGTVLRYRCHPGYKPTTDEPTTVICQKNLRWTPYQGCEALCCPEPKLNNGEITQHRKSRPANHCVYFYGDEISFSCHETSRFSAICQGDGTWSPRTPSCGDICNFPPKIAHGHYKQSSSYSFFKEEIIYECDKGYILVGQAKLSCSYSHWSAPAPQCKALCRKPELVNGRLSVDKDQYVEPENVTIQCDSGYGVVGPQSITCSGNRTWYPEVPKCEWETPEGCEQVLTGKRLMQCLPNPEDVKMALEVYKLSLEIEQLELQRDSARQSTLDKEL

[16] = target: KIAA0804 protein (Homo sapiens) (UniProt Q8N3P4)
Chain of KIAA0804 protein (Homo sapiens) (Q8N3P4 whole entry): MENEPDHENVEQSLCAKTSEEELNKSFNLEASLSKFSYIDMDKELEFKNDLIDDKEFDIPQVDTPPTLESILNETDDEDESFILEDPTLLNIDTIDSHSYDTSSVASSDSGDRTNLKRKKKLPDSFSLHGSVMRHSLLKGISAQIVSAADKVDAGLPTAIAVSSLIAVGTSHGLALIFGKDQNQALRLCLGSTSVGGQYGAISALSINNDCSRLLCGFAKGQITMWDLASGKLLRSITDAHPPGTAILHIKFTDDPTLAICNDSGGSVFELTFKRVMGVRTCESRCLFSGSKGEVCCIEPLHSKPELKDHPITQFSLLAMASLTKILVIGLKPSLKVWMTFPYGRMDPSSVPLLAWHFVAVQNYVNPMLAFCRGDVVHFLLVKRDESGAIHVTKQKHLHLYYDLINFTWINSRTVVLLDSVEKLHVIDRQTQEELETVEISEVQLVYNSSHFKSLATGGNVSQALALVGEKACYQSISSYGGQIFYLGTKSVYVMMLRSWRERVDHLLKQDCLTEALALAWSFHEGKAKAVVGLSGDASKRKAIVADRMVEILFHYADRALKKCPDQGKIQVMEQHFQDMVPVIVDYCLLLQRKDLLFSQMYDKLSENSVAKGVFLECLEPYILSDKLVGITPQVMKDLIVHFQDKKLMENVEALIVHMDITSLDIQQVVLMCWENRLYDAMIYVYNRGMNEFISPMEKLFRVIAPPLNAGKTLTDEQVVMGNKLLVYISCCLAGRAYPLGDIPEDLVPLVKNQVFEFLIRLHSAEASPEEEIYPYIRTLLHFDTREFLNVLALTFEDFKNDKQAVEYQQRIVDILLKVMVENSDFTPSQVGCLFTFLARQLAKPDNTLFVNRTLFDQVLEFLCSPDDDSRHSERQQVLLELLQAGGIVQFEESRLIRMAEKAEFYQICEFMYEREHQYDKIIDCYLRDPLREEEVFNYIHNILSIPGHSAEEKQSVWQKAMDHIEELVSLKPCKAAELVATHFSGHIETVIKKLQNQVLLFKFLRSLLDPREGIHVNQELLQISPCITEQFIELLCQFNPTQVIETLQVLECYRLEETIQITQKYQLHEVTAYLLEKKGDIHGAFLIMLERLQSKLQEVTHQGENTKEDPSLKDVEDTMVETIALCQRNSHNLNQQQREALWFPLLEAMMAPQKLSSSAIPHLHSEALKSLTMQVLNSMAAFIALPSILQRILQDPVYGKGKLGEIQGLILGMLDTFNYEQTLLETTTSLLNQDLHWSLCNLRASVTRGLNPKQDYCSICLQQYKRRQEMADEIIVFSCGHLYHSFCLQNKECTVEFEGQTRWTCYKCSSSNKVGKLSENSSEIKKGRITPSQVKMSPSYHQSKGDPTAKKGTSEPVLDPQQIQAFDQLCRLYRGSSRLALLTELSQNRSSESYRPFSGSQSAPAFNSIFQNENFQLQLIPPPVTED

[17] = target: complement component 3 precursor (Homo sapiens) (UniProt P01024)
[18] = target: KIAA1330 protein (Homo sapiens) (UniProt Q96L96)
keratin 1 (Homo sapiens) = keratin 1 (Homo sapiens) (UniProt P04264)
[19] = target: brefeldin A-inhibited guanine nucleotide-exchange protein 1 (Homo sapiens) (UniProt Q9Y6D6)
[20] = target: neutral sphingomyelinase (N-SMase) activation associated factor (Homo sapiens) (UniProt Q92636)
[21] = target: UDP glycosyltransferase 1 family, polypeptide A9 (Homo sapiens) (UniProt O60656)
[22] = target: hypothetical protein FLJ12178 (Homo sapiens)
[23] = target: hypothetical protein FLJ22344 (Homo sapiens)
[24] = target: triple functional domain (PTPRF interacting) (Homo sapiens) (UniProt O75962)
[25] = target: coronin, actin binding protein, 1B (Homo sapiens) (UniProt Q9BR76)
[26] = target: START domain containing 9 (Homo sapiens) (UniProt Q9P2P6)
[27] = target: apolipoprotein B precursor (Homo sapiens) (UniProt P04114)
[28] = target: myocardin-related transcription factor B (Homo sapiens) (UniProt Q9ULH7)
Chain of myocardin-related transcription factor B (Homo sapiens) (Q9ULH7 other isoform, or with tags, fused parts or gaps limits assumed): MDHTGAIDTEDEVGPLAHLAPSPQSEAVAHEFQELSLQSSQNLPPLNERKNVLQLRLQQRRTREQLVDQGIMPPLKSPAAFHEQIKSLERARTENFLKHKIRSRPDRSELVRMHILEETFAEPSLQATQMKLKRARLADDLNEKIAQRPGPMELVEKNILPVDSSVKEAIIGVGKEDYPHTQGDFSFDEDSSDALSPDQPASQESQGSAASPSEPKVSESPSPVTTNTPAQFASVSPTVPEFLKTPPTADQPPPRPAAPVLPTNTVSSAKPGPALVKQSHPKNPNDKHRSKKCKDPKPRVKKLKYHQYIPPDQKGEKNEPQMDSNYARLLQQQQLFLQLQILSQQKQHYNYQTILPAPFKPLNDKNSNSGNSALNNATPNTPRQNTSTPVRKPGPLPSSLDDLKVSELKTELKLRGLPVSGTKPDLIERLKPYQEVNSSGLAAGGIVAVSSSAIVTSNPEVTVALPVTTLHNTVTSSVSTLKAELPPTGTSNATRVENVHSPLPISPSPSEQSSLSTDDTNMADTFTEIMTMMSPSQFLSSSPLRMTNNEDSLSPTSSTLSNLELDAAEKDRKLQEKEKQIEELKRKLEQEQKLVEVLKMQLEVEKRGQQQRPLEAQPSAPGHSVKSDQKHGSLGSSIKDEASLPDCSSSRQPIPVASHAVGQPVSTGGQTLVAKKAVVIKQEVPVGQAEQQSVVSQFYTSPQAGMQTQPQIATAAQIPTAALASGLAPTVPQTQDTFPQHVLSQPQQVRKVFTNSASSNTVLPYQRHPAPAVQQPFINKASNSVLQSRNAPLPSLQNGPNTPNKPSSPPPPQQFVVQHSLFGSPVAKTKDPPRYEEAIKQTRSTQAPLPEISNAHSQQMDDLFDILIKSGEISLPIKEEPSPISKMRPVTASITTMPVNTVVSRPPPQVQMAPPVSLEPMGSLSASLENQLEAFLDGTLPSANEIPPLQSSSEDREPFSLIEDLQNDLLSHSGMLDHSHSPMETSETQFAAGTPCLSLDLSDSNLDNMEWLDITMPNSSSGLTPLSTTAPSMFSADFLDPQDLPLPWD

[29] = target: similar to KIAA1074 protein (Homo sapiens) (UniProt Q9UPS8)
[30] = target: 3-hydroxyanthranilate 3,4-dioxygenase (Homo sapiens) (UniProt P46952)
Chain of 3-hydroxyanthranilate 3,4-dioxygenase (Homo sapiens) (P46952 whole entry): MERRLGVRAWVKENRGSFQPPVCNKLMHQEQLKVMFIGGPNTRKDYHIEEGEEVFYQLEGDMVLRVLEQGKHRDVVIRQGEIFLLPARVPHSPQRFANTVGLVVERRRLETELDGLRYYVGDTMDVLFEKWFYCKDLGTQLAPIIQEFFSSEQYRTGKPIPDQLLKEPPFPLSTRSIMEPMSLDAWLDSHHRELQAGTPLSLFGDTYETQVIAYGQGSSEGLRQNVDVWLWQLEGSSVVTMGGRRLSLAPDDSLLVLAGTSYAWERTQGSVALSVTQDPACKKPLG

[31] = target: stress 70 protein chaperone, microsome-associated, 60 kDa (Homo sapiens) (UniProt P48723)
Chain of stress 70 protein chaperone, microsome-associated, 60 kDa (Homo sapiens) (P48723 23-471 limits assumed): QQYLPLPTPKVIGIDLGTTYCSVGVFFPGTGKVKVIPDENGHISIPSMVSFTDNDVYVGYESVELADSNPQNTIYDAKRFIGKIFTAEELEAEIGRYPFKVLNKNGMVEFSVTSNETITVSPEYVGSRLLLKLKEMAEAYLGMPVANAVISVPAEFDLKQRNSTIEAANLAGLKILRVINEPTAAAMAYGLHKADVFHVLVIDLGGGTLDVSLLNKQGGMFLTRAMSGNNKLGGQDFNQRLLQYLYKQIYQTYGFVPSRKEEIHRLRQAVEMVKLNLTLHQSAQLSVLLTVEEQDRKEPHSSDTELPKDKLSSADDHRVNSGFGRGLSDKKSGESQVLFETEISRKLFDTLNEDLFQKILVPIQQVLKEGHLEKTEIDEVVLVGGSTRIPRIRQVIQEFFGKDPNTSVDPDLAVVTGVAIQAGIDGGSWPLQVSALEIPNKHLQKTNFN

[32] = target: apolipoprotein A-I precursor (Homo sapiens) (UniProt P02647)
Chain of apolipoprotein A-I precursor (Homo sapiens) (P02647 25-267 limits assumed): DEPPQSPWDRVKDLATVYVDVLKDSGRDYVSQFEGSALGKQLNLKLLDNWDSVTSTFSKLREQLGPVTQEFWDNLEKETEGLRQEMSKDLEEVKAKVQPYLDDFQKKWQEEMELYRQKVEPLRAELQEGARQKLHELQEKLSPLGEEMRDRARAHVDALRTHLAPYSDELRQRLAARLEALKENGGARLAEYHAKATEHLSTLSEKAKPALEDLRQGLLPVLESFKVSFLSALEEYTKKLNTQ

[33] = target: hemicentin (Homo sapiens) (UniProt Q96RW7)

Chain of GroEL having Aspartate 490 substituted with Cysteine, biotinylated and conjugated onto NeutrAvidin beads (A1AJ51 whole entry D490C): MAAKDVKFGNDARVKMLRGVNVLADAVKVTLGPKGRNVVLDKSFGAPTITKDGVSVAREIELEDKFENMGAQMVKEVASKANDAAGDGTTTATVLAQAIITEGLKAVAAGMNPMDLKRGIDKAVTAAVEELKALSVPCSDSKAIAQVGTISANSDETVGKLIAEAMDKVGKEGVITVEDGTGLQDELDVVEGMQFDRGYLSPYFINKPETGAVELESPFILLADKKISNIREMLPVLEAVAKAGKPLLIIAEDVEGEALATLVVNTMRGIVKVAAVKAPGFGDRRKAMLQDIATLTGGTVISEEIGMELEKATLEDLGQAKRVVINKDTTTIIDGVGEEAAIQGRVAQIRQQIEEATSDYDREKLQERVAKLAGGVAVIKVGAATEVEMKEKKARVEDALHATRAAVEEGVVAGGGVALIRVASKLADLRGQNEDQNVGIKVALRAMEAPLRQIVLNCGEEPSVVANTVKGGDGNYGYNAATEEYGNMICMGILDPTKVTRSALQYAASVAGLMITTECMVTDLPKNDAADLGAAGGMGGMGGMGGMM
Chain of DNA fragmentation factor, 45 kD, alpha polypeptide (Homo sapiens) (O00273 whole entry, the tested form may be a part): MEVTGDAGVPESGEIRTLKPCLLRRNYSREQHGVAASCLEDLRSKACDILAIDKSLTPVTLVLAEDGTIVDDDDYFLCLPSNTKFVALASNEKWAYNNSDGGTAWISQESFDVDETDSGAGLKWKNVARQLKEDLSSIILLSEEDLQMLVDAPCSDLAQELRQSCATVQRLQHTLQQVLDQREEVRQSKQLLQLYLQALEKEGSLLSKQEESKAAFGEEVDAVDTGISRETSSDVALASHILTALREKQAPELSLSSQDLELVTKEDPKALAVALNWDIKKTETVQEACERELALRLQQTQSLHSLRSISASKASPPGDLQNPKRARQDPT

Spectrum Count [1]: 11 count | Spectrum Count [2]: 14 count | Spectrum Count [3]: 9 count | Spectrum Count [4]: 13 count | Spectrum Count [5]: 12 count | Spectrum Count [6]: 9 count | Spectrum Count [7]: 16 count | Spectrum Count [8]: 18 count | Spectrum Count [9]: 475 count | Spectrum Count [10]: 27 count | Spectrum Count [11]: 10 count | Spectrum Count [12]: 9 count | Spectrum Count [14]: 11 count | Spectrum Count [15]: 14 count | Spectrum Count [16]: 13 count | Spectrum Count [17]: 43 count | Spectrum Count [18]: 13 count | Spectrum Count (keratin 1 (Homo sapiens)): 16 count | Spectrum Count [19]: 11 count | Spectrum Count [20]: 9 count | Spectrum Count [21]: 13 count | Spectrum Count [22]: 9 count | Spectrum Count [23]: 10 count | Spectrum Count [24]: 14 count | Spectrum Count [25]: 28 count | Spectrum Count [26]: 10 count | Spectrum Count [27]: 19 count | Spectrum Count [28]: 16 count | Spectrum Count [29]: 28 count | Spectrum Count [30]: 9 count | Spectrum Count [31]: 12 count | Spectrum Count [32]: 13 count | Spectrum Count [33]: 10 count
Substance: GroEL having Aspartate 490 substituted with Cysteine, biotinylated and conjugated onto NeutrAvidin beads (from UniProt A1AJ51 1-548)
Spectrum Count [13]: 11 count
